According to patent US20080206243A1 (Genentech, published 2008):
Blank lines part the entries; values can stand above or below the molecule they belong to.

Assays:
KDR [1] = target: T1, KDR (UniProt P35968 20-764, limits assumed); assay: soluble radio-immuno receptor-binding assay (RIA)
T1 construct: The receptor construct used in the RIA is not described; also called KDR receptor; VEGFR-2

KDR [2] = target: T1, KDR; assay: soluble radio-immuno receptor-binding assay (RIA); target KDR
Flt-1 = target: T2, Flt-1 (UniProt P17948 27-758, limits assumed); assay: soluble radio-immuno receptor-binding assay (RIA); target Flt-1
T2 construct: The receptor construct used in the RIA is not described; also called Flt-1 receptor; VEGFR-1
T2 sequence (P17948 27-758 limits assumed): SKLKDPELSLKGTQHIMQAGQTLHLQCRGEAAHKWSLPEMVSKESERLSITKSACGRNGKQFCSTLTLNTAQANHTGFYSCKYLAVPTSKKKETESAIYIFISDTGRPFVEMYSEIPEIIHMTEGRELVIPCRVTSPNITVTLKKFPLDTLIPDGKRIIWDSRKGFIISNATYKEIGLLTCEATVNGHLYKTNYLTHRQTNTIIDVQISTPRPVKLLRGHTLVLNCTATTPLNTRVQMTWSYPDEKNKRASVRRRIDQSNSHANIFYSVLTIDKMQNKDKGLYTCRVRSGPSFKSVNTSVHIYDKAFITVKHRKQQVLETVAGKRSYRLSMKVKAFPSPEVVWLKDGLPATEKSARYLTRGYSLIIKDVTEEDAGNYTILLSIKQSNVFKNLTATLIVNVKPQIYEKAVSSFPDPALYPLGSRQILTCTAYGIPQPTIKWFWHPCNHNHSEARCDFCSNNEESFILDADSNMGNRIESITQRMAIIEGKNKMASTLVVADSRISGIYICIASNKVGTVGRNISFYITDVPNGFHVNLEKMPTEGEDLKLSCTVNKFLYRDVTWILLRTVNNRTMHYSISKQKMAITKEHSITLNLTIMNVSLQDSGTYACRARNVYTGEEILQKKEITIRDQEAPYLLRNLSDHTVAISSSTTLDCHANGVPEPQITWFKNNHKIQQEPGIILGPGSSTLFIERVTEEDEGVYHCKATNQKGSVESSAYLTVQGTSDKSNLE

T1 sequence (P35968 20-764 limits assumed): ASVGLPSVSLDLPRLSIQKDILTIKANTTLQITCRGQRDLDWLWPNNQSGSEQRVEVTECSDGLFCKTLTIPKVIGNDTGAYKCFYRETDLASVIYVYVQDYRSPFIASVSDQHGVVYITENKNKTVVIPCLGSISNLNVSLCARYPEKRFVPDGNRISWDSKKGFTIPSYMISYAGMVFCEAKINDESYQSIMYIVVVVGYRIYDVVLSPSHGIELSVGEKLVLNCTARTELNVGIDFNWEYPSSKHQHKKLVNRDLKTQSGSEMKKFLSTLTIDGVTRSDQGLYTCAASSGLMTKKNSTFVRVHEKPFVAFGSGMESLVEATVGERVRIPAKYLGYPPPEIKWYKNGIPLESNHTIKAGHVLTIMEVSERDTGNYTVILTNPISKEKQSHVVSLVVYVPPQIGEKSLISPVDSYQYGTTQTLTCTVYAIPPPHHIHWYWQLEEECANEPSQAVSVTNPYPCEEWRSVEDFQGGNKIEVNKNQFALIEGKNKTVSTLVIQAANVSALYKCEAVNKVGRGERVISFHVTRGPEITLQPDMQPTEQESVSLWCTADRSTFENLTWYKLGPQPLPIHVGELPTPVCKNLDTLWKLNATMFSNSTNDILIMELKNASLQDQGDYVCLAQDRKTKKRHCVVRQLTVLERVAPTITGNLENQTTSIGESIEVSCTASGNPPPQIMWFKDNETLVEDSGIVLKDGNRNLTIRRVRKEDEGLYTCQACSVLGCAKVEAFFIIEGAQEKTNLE

fold reduction of KDR-binding affinity against native VEGF (KDR [1]): > 470 fold
Molecule: I43A/I46A/Q79A/I83A Flt-sel variant (from UniProt P15692 27-135) (ligand)

Kd (KDR [2]): 0.5 nM | Kd (Flt-1): 0.4 nM
B1: native VEGF(8-109) (ligand, human, UniProt P15692 214-315, looked up)
chain: GQNHHEVVKFMDVYQRSYCHPIETLVDIFQEYPDEIEYIFKPSCVPLMRCGGCCNDEGLECVPTEESNITMQIMRIKPHQGQHIGEMSFLQHNKCECRPKKD
notes: range 8-109; Residues 8-109 are counted on the native (mature) 165-amino acid VEGF, not on the precursor with its signal peptide; the listing holds only primers; also called native protein
